Tests used:
[1] = biological target: T1, Wildtype human PAR2 expressed on cells (human, UniProt P55085 37-397); test: IntelliCyt flow cytometry, titration of IgG1f_AEASS on HEK Flp-In TRex 293_huPAR2 expression-induced cells, S/BG
T1 construct: also called huPAR2; WT FL-huPAR2
T1 sequence: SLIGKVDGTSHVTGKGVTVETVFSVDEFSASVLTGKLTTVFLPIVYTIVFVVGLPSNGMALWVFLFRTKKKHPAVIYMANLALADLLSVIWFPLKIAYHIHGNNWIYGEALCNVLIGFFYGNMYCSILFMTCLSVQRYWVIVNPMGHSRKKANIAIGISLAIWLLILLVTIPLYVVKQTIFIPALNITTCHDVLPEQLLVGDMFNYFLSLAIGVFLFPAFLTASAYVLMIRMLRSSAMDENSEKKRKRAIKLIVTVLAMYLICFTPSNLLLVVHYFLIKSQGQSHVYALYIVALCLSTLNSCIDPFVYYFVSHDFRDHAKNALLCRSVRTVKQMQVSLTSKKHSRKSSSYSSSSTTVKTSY
Description: (§1) To evaluate species cross-reactivity and/or unwanted binding to counter-targets simultaneously, screening in 384-well plate format was performed using the HTFC/iQue screening platform from IntelliCyt. The HTFC/iQue Screening System was also used for evaluation of binding to multiple target cell lines or evaluation of unwanted/non-specific binding in parallel, in other words multiplexing. Different cell populations could be distinguished by pre-labelling with distinct amounts of fluorescent dyes, such as Calcein or Cell-Tracker Green, establishing a unique signature of fluorescence intensity for each cell population, thereby producing a fluorescence coding system. The color-coded cell lines were then physically combined and mixed together with antibodies to be tested. Individual cell-lines could be identified via the fluorescence of the respective cell-line that had been pre-labelled. Crude bacterial cell lysates were combined with cells and incubated for 1 hour at room temperature in the dark, shaking gently. Fluorescence measurement was performed with the IntelliCyt HTFC/iQue device. In between incubation steps, no washing was required. Raw data were evaluated with the help of the ‘ForeCyt’ software. After data acquisition, the cell lines from each sample could be identified according to their fluorescence signature and individually evaluated for antibody binding. […]

[2] = biological target: T2, PAR2-3: P157: 1-377, glycosylated, pBacMamHisStrepII, full length (human, UniProt P55085 26-377); test: SPR Biacore; IgG captured on anti-human IgG, 100 nM PAR2 analyte; 1:1 model
T2 construct: detergent-solubilised analyte in SPR, or on infected cells in flow cytometry; also called FL-N PAR2 StaR; FL-N StaR; not shown: C-terminal StrepII and deca-histidine tags
T2 sequence: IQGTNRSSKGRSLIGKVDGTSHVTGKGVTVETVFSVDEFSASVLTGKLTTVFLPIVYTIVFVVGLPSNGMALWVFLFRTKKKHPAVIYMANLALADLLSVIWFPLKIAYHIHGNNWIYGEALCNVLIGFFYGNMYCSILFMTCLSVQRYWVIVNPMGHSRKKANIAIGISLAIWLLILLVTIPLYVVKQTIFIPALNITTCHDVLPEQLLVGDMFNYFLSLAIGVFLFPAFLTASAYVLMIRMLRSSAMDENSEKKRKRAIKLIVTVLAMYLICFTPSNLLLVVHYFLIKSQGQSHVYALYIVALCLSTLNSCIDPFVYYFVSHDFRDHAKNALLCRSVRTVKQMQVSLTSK
Description: The antibodies were captured on anti-human IgG chip surface followed by injection of 100 nM PAR2. The data were fitted to 1:1 interaction model except for clone ‘Y021160’ in which case heterogeneous ligand model was used and component with slow dissociation was used for comparison.
(§2) For three purified IgG1f_AEASS clones Y021171, Y022054 and Y022063 affinities to human PAR2-3 variant (P157: 1-377, glycosylated, pBacMamHisStrepII, full length) were determined by SPR immobilizing the IgG and probing with detergent (LMNG/CHS) solubilized FL-N PAR2 StaR. Affinities were 22 nM and 20 nM for Y022063 and Y021171, respectively.

[3] = biological target: T1, Wildtype human PAR2 expressed on cells; test: cell-based or functional assay
Rhesus PAR2 on cells = Rhesus PAR2 on cells (rhesus (Macaca mulatta)); test: cell-based or functional assay
[4] = biological target: T1, Wildtype human PAR2 expressed on cells; test: cell-based or functional assay; remark: listed apart in the source
[5] = biological target: Cynomolgus PAR2 on BacMam-infected HEK293 cells (cynomolgus); test: cell-based or functional assay
[6] = biological target: T3, V5His-huPAR2 on Flp-In CHO cells (human, UniProt P55085 37-397); test: IntelliCyt flow cytometry, titration of IgG1f_AEASS on Flp-In CHO_V5His_huPAR2 cells, S/BG
T3 sequence: T1 sequence
Description: as §1

Wildtype human PAR 1 = biological target: T4, Wildtype human PAR 1 (human, UniProt P25116 42-425); test: IntelliCyt flow cytometry, titration of IgG1f_AEASS, S/BG
T4 construct: BacMam-infected HEK293f cells in the IP-One assay
T4 sequence: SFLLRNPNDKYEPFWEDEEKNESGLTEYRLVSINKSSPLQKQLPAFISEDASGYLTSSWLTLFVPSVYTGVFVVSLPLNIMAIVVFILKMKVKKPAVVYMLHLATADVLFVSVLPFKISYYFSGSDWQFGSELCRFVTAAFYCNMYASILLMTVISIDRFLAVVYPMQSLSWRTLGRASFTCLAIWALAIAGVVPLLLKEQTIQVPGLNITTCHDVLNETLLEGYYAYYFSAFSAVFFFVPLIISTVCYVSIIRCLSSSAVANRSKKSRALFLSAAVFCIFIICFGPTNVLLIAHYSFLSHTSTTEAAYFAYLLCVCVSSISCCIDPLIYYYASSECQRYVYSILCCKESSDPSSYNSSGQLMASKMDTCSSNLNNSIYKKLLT
Description: as §1

[7] = biological target: T5, Mouse PAR2 on Flp-In CHO cells (mouse, UniProt P55086 39-399); test: FACS titration on CHO mouse Par2 cells, RLU [continued) C]
T5 construct: whole, on cells
T5 sequence (looked up): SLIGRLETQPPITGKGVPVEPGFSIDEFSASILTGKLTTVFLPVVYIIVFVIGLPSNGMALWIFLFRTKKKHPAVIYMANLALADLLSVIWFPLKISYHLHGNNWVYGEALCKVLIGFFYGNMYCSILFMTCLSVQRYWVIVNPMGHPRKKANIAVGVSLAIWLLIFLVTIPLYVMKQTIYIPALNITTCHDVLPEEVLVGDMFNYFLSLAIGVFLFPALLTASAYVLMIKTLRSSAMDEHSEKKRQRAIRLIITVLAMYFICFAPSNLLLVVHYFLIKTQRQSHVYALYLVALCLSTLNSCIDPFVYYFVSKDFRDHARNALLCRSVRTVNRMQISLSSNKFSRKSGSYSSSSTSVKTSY
Description: Binding events to cell surface expressed antigen were identified by flow cytometry using either crude E. coli lysates from the panning output or purified antibodies. High throughput primary screens of panning outputs from differential whole cell pannings (DWCP) were mainly performed on human wild type PAR2-expressing Flp-In CHO cells (Flp-In CHO_huPAR2), GNTI BacMam wild type PAR2 cells and GNTI BacMam truncated PAR2 StaR versus parental Flp-In CHO cells (PAR2 negative) or non-infected HEK293GNTI-cells. Candidates showing an elevated background binding to parental Flp-In CHO cells were ascribed as either non-specific or off-target binders. All steps were performed in FACS buffer including FCS and sodium azide to prevent potential receptor internalization. Cell suspensions were transferred into microtiter plates and antibody samples were added followed by subsequent incubation of plates at 4° C. Sample volume and cell-number were adjusted to the plate type used. Following incubation, cells were spun down and washed with FACS buffer. Fluorophore-conjugated secondary reagents were used for detection of bound antibodies. Plates were measured using the BD FACS Array or IntelliCyt HTFC/iQue System and data was analysed using FlowJo, ForeCyt or proprietary software tools (FIG. 3).

[8] = biological target: T5, Mouse PAR2 on Flp-In CHO cells; test: cell binding, flow cytometry/IntelliCyt
[9] = biological target: T2, PAR2-3: P157: 1-377, glycosylated, …; test: SPR Biacore T200; IgG captured on anti-human IgG, 250 nM PAR2 analyte; 1:1 model
Description: (§3) The assay of PAR2 interaction with anti-PAR2 antibodies was carried out using a Biacore T200 instrument (GE Healthcare). Anti-human IgG antibody (Human Antibody Capture Kit, GE Healthcare) was immobilised by amine coupling on a sensor chip CM3 (GE Healthcare) to a surface density of 3500 to 4500 resonance units (RU). Immobilisation was carried out at 25° C. in HBS-EP+ buffer (GE Healthcare). The buffer was then changed to 50 mM HEPES, pH 7.5, 150 mM NaCl, 0.02% LMNG, 0.002% CHS. Each cycle of the PAR2-antibody interaction assay consisted of antibody capture (100 nM antibody injected for 2 min at a flow rate of 5 μL/min), PAR2 injection (blank or 250 nM, with contact and dissociation times of 2 and 3 minutes, respectively, at a flow rate of 20 μl/minute), and chip surface regeneration (30 seconds at 20 μl/minute) using the regeneration solution from Human Antibody Capture Kit (GE Healthcare). […] Measurements between each experimental data set were within the acceptable margins for this methodology.
The antibodies were captured on anti-human IgG chip surface followed by injection of 250 nM PAR2. The data were fitted to 1:1 interaction model.

[10] = biological target: T2, PAR2-3: P157: 1-377, glycosylated, …; test: SPR; IgG immobilised, detergent solubilised FL-N PAR2 StaR as analyte
Description: as §2, §3

B1: Y022065 (antibody, human IgG1, lambda, V domains shown)
VH: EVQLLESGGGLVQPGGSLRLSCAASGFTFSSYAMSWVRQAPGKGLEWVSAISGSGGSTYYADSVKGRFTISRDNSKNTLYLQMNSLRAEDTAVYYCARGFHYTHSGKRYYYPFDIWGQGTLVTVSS
VL: QSALTQPASVSGSPGQSITISCTGTSSDVGSYNLVSWYQQHPGKAPKLMIYEGSKRPSGVSNRFSGSKSGNTASLTISGLQAEDEADYYCSQYATFIAFAVFGGGTKLTVLG
notes: also called clone Y022065; parental clone Y022065
Question: Which results are given for B1?
Answer: EC50 (read off the curve) [1]: ~7 nM; Kd [2]: 5.3 nM; koff [2]: 0.00016 s⁻¹; kon [2]: 30000 M⁻¹ s⁻¹; % Max Inhibition AP, IP-One [3]: 43%; IC50 (nM), SLIGKV agonist challenge, Rhesus (Rhesus PAR2 on cells): > 2000 nM; IC50 (nM), SLIGKV agonist challenge, Human [4]: 264 nM; IC50 (nM), SLIGKV agonist challenge, Cyno [5]: > 2000 nM; EC50 (read off the curve) [6]: ~4 nM; binding result (Wildtype human PAR 1): no binding (tested: 200 nM); binding result [7]: no binding

B2: Y022054 (antibody, V domains shown)
VH: EVQLLESGGGLVQPGGSLRLSCAASGFTFSSYAISWVRQAPGKGLEWVSAISGSGGSTYYAESVKGRFTISRDNSKNTLYLQMNSLRAEDTAVYYCARGYAEFGVWGQGTLVTVSS
VL: DIQMTQSPSSLSASVGDRVTITCRASQSISSYLNWYQQKPGKAPKLLIYAASSLQSGVPSRFSGSGSGTDFTLTISSLQPEDFATYYCQQTWGGPQTFGQGTKVEIKR
Question: Which “% Max Inhibition AP, IP-One” value [3] does the source give for B2 here?
Answer: Its value is 17%.

Question: Does B2 bind [8]?
Answer: Result: no binding

Question: What about the Kd [9] of the same binder?
Answer: Its Kd is 2.5 nM.

Question: What about the koff [9] of the same binder?
Answer: The koff was 0.00029 s⁻¹.

Question: And the kon [9]?
Answer: Its kon is 120000 M⁻¹ s⁻¹.

Question: What about the “fold higher affinity compared to Y022063 and Y021171” value [10] of the same binder?
Answer: The value was 10 fold.
